Source: the nanobody polyreactivity screen of Harvey et al. (2022)

Assay: yeast display, Sf9 membrane polyspecificity reagent, FACS + sequencing; frameworks hold sequencing errors
Outline: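 Sorting gates, low and high (top ~1%), were placed on anti-HA fluorescence to track expression and on streptavidin fluorescence to track reagent binding. A clone's polyreactivity label is taken from the gate it came out of. The reagent was 10% biotinylated, detergent-solubilized Sf9 membrane, applied for 1 hour at 4 °C to galactose-induced yeast display cells.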

Sequence | polyreactivity (PSR sort gate)
QVQLVESGGGLVQAGGSLRLSCAASGSTFWYNDMGWYRQAPGKETELVASISWSGGDTYYADSVKGRFTISRDNAKNTVYLQMNSLKPEDTAVYYCAKGNNWISRLMDYWGQGTQVTVSS | low polyreactivity
QVQLVESGGGLVQAGGSLRLSCAASGNIFRPYTMGWYRQAPGKERELVARISSGGSTNYADSVKGRFTISRDNAKNTVNLQMNSLKPEDTAVYYCAKRYGTVHSRYGYWGQGTQVTVSS | high polyreactivity
QVQLVESGGGLVQAGGSLRLSCAASGSIVYRYAMGWYRPAPGKERELVAAISYSGGSTYYADSVKGRFTISRDNAKNTVYLQMNSLKPEDTAVYYCAKDYPPPISDYSRYYGYGYWGQGTQVTVSS | low polyreactivity
QVQLVESGGGLVQAGGSLRLSCAASGNIFSSNAMGWYRQAPGKERELVAAISASGGNTYYADSVKGRFTISRDNAKNTVYLQINSLKPEDTAVYYCNAYRGGYLRRGYYYWGQGSQVTVSS | high polyreactivity
QVQLVESGGGLVQAGGSLRLSCAPSGRIFVLYTMGWYRQAPGKERELVAAIRGGGSTNYADSVKGRFTISRDNAKNTVYLQMNSLKPEDTAVSYCAARYYREYDYWGQGTQVTVSS | high polyreactivity
QVQLVESGGGLVQAGGSLRLSCAASGSTFGYYAMGWYRQAPGKERELVAAITSGGSKKYADSVKGRFTISRDNAKNTVYLQMNSLKPEDTAVYYCATSRYFGYGYWGQGTQVTVSS | low polyreactivity
QVQLVESGGGLVQAGGSLRLSCAASGRIFVEYAMGWYRQAPGKERELVAAINSGGSTNYADSVKGRFTISRDNAKNTVYLQMNSLKPEDTAVYYCNKDTLVYGYVQDYEYWGQGTQVTVSS | low polyreactivity
QVQLVESGGGLVQAGGSLRLSCAASGSISGYYVMGWYRQAPGKERELVAAITWRGGSTYYADSVKGSFTISRDNAKNTVYLQMNSLKPEDTAVYYCNKVPGRRSTFEYWGQGTQVTVSS | high polyreactivity
QVQLVESGGGLVQAGGSLRLSCAASGRILYYYTMGWYRQAPGKEREFVAAISSRGGSTYADSVKGRFTISRDNAKNTVYLQMNSLKPEDTAVFYCNARLKPRWGGRYDYWGQGTQVTVSS | high polyreactivity
QVQLVESGGGLVQAGGSLRLSCAASGSTFDGYAMGWYRQAPGKERELVAAINWGGGSTRYADSVKGRFTISRDNAKNTVYLQMNSVKPEDTAVYYCAARRFAYYFQYLVGGYWGQGTQVTVSS | high polyreactivity
QVQLVESGGGLVQAGGSLRLSCAASGSIYWYAMGWYRQAPGKERQLVAAITKSGSSTYYADSVKGRFTISRDNAKNTVYLQMNSLIPEDTAVYYCAARRAVSGGVRTYYWGQGTQVTVSS | high polyreactivity
QVQLVESGGGLVQAGGSLRLSCAASGTFWLYTMGWYRQAPGKERELVAAISLTAGNTYYADSVKGRFTISRDNAKNTVYLQMNSLKPEDTAVYYCAADHYYYTRYEYWGQGTQVTVSS | low polyreactivity
QVQLVESGGGLVQAGGSLRLSCAASGFTFRAYAMGWYRQAPGKERELVATITRSGGSTFYADSVKGRFTISRDNAKNTVYLQMNSLKPEDTAVYYCAAVYRFAFRYAWYKYDYWGQGTQVTVSS | high polyreactivity
QVQLVESAAGLVQAVGSHRLSCAASRLTFGFYAMGSDRQARGKESELVAAIDFSDGSTYYADSVKGRFTISRDNAKKTVYLQMNSLKPEDTAVYYCAADDPGLGYWSLTWYDYWGQGTQVTVSS | high polyreactivity
QVQLVESGGGLVQAGGSLRLSCAASASTFSTYAMGSYRQAPGKERELVAAISWSGGSTNYADSVKGRLTISRDIAKYTVYLQMNSLKPEDTAVYYCGARWTSRYDYWGQGTQVTVSS | high polyreactivity
QVQLEESGGGLVQAGRSLRLISAASGRMFGWNAMGWYRQAPWKERELVASIRSGGRTNYADSVKGRFTISRDNAKNTVYLQMNSLKPEDTAVYYCAVGPYYQSTQIYDYWGQGTQVTVSS | low polyreactivity
QVQLVESGGGLVQAGGSLPLSCAASGSIFWRNAMGWYRQAPGKEREFVATITWSGDSTYYADSVKGRFTISRDNAKNTVYLQMNSLKPEDTAVYYYAAAYSNWHPGLDYWGQGTPVTVSS | low polyreactivity
